The results in this text go back to paper PMC7190159, “The L motifs of two moss pentatricopeptide repeat proteins are involved in RNA editing but predominantly not in RNA recognition”.

Where a chain is given by its changes, count along the chain named.

Conditions in all cases: protein: recombinant; tags: N-term thioredoxin; C-term 6xHis; label: 5'-32P
In data set [1] the target is T1, 56ΔDYW-wt (PpPPR_56 without transit peptide and DYW domain) (Physcomitrella patens, UniProt A0A2K1IWP1 161-764).
T1 sequence: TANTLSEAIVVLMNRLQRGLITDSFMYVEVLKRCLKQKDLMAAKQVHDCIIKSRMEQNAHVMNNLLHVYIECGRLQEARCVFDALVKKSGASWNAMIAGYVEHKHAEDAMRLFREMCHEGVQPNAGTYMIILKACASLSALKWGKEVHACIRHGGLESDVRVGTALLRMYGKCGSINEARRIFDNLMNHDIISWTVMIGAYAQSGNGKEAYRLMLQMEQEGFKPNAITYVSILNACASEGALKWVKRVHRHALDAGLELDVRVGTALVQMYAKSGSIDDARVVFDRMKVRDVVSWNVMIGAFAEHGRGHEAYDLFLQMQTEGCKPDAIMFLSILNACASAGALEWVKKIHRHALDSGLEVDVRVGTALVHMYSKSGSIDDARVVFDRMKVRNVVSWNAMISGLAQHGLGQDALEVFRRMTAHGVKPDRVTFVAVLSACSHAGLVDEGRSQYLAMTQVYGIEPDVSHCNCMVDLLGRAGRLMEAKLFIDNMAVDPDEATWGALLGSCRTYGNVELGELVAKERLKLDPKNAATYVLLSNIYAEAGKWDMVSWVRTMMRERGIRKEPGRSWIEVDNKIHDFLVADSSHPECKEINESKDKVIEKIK
In words: EMSA; 0-100 nM protein, 50 pM RNA; better affinity than for nad3; 40 mM Tris pH 8.0, 100 mM NaCl, 4 mM DTT, 0.1 mg/mL BSA, 10% glycerol, 25°C; protein 10 min, then 50 pM RNA 15 min; native 6% PAGE. A general note: In EMSA bound probe runs differently from free probe, usually more slowly.

Data set [2] concerns the target T2, 56ΔDYW-13L[ED] (Physcomitrella patens, UniProt A0A2K1IWP1 161-764, V592E).
T2 sequence: T1 sequence with V432E
The data set can be described thus: EMSA; like wt; 40 mM Tris pH 8.0, 100 mM NaCl, 4 mM DTT, 0.1 mg/mL BSA, 10% glycerol, 25°C; protein 10 min, then 50 pM RNA 15 min; native 6% PAGE.

In data set [3] the target is T3, 56ΔDYW-13L[PD] (Physcomitrella patens, UniProt A0A2K1IWP1 161-764, V592P).
T3 sequence: T1 sequence with V432P
Described as above.

Data set [4] concerns the target T4, 56ΔDYW-nad3L (Physcomitrella patens, UniProt A0A2K1IWP1 161-764, V188N;M289T;V390T;D420N;L491N;D521S;V592N;D623S).
T4 sequence: T1 sequence with V28N, M129T, V230T, D260N, L331N, D361S, V432N, D463S
In words: EMSA; no significant difference from wt; 40 mM Tris pH 8.0, 100 mM NaCl, 4 mM DTT, 0.1 mg/mL BSA, 10% glycerol, 25°C; protein 10 min, then 50 pM RNA 15 min; native 6% PAGE.

Data set [5] has as its target T1, 56ΔDYW-wt (PpPPR_56 without transit …). The data set can be described thus: EMSA; 0-100 nM protein, 50 pM RNA; lower affinity than for nad4; 40 mM Tris pH 8.0, 100 mM NaCl, 4 mM DTT, 0.1 mg/mL BSA, 10% glycerol, 25°C; protein 10 min, then 50 pM RNA 15 min; native 6% PAGE.
Data set [6] has the same target. In words: EMSA; 100 nM protein; 40 mM Tris pH 8.0, 100 mM NaCl, 4 mM DTT, 0.1 mg/mL BSA, 10% glycerol, 25°C; protein 10 min, then 50 pM RNA 15 min; native 6% PAGE.
Data set [7] deals with T2, 56ΔDYW-13L[ED]. Described as above.
Data set [8] concerns the target T3, 56ΔDYW-13L[PD]. The data set is described as above.
Data set [9] deals with T4, 56ΔDYW-nad3L. The description is as above.

AUUUUUAUAUAGGUAUAGACGGUAUCUCUUCAUUUU (ssRNA) [nad4-edit]: the binding result (in data set [1]; in the data set with 56ΔDYW-13L[ED] [2]; with 56ΔDYW-13L[PD] [3]) was “binds” throughout.

As to UUAUUAUAUUUGAUUUGGAAGUCACCUUUUCAUUUC (ssRNA) [nad3-edit], the binding result (with 56ΔDYW-nad3L [4]; in data set [5]; with 56ΔDYW-13L[ED] [2]; in the data set with 56ΔDYW-13L[PD] [3]) was “binds” in each case.

In the case of UUAUUUUUUUCGUUUCUCUUUUUGUUUUU (ssRNA) [PpPsbI-RNA1], the binding result (in [6]; with 56ΔDYW-13L[ED] [7]; with 56ΔDYW-13L[PD] [8]; with 56ΔDYW-nad3L [9]) was “no binding” in each case.
